Target: recombinant GST-Pak6 (from pMW-GST-Pak6, E. coli) (human, UniProt Q9NQU5 1-681)
Test: pull-down
Conditions: both partners purified

Sequence of recombinant GST-Pak6 (from pMW-GST-Pak6, E. coli) (Q9NQU5 whole entry): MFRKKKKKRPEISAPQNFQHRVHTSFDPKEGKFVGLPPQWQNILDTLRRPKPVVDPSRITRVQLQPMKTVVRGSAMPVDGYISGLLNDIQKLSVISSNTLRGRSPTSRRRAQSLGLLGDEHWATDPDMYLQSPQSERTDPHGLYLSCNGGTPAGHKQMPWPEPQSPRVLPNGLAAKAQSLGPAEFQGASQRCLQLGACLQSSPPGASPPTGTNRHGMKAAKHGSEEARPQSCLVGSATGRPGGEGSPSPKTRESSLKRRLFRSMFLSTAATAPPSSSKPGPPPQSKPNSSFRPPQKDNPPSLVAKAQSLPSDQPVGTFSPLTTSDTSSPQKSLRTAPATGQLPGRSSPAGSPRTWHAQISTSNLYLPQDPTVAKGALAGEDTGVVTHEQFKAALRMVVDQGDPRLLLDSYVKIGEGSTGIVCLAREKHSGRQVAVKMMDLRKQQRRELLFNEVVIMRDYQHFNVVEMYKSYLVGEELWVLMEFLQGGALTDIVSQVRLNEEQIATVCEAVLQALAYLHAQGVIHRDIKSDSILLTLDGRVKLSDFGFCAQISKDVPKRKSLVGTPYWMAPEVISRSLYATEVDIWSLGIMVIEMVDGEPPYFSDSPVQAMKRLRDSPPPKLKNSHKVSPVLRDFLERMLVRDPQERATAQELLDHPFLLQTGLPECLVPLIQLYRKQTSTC

B1: recombinant His-RhoD loaded with GTPγS (natural protein, mouse, UniProt P97348 1-210, looked up)
chain: MNASQVAGEEAPQSGHSVKVVLVGDGGCGKTSLMMVFAKGAFPESYSPTVFERYNATLQMKGKPVHLQIWDTAGQDDYDRLRPLFYPDANVLLLCFDVTNPNSFDNVSNRWYPEVTHFCKGVPIIVVGCKIDLRKDKVLVNNLRKKRLEPVTYHRGHDMARSVGAVAYLECSARLHDNVEAVFQEAAEVALSSRRHNFWRRITQNCCLAT
binding result: binds

Source: publication PMC5425256 (Developmental Cell, 2017)
